Experiments:
[1] = target: Arabidopsis thaliana Fructosamine-3-kinase homolog (AtFN3K), wild type (Arabidopsis thaliana) (UniProt Q9LEW8); assay: SEC
[2] = target: AtFN3K C32A/C236A/C196A triple cysteine mutant (Arabidopsis thaliana); assay: SEC
[3] = target: AtFN3K C32A/C236A/C196A triple cysteine mutant (Arabidopsis thaliana); assay: AUC
non-reducing SDS-PAGE = target: the molecule itself; assay: non-reducing SDS-PAGE

Molecule: Arabidopsis thaliana Fructosamine-3-kinase homolog (AtFN3K), wild type (from UniProt Q9LEW8 31-326) (enzyme)
- stoichiometry N [1]: 2

Molecule: AtFN3K C32A/C236A/C196A triple cysteine mutant (enzyme)
- stoichiometry N [2]: 2
- stoichiometry N [3]: 2

B1: Recombinant His-HsFN3K (human Fructosamine-3-kinase), wild type (enzyme, UniProt Q9H479 1-309, looked up)
chain: MEQLLRAELRTATLRAFGGPGAGCISEGRAYDTDAGPVFVKVNRRTQARQMFEGEVASLEALRSTGLVRVPRPMKVIDLPGGGAAFVMEHLKMKSLSSQASKLGEQMADLHLYNQKLREKLKEEENTVGRRGEGAEPQYVDKFGFHTVTCCGFIPQVNEWQDDWPTFFARHRLQAQLDLIEKDYADREARELWSRLQVKIPDLFCGLEIVPALLHGDLWSGNVAEDDVGPIIYDPASFYGHSEFELAIALMFGGFPRSFFTAYHRKIPKAPGFDQRLLLYQLFNYLNHWNHFGREYRSPSLGTMRRLLK
- binding result (non-reducing SDS-PAGE): binds

Reference: publication doi:10.1101/2020.01.13.904870 (bioRxiv, 2020)
